Results taken from the supplement of paper PMC9170038.

System: MS2 coat protein
Assay: apparent KD of MS2 coat protein; designed switch direction (-1 OFF switch, 1 ON switch): 1; higher = weaker reporter binding
Procedure, shortened: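 Designed RNA switches with common flanks were made on Illumina chips by stalled E. coli RNA polymerase. Titration with SNAP-549-labelled MS2 coat protein doubled from 0.7 or 1.5 nM up to 3 µM. Apparent KD is each design's median over clusters after curve-fitting normalised fluorescence.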

[1] = Eterna round: R95, input ligand: FMN 200 uM
[2] = Eterna round: R95, input ligand: microRNA oligo, concentration not stated
[3] = Eterna round: R95, input ligand: none
[4] = input ligand: microRNA oligo, concentration not stated

GAAGGAUGAGCGUAGGAUAUAGGAGGAGUGACAUGAGGAUCACCCAUGUGGUAUGAGGGAGGAUUCUAGAAGGACGCGGUAGAAG [JR_SS2_Sub065] (puzzle: Same State 2)
apparent KD of MS2 coat protein [1]: 89.9 nM | apparent KD of MS2 coat protein [2]: 150 nM | apparent KD of MS2 coat protein [3]: 161 nM

GGCCUGAGUCAAGGAUAUGCUACCGUUUCGGUAGCAGAAGGUGAUCACAUGAGGAUCACCCAUGUUUACGGGAAGACCCGCGCC (Eterna round: R96, puzzle: Same State NG 1)
apparent KD of MS2 coat protein (input ligand: FMN 200 uM): 1470 nM | apparent KD of MS2 coat protein [4]: 141 nM | apparent KD of MS2 coat protein (input ligand: none): 489 nM

AGCCGAGACACAGGAUAUAGAUAUCUACAUGAGGAUCACCCAUGUAGCAACACGUGGUAGUGAUACUAGAAGGGUGCUCGGCGC [Omei SS(NG)2 Cv9] (Eterna round: R96, puzzle: Same State NG 2)
apparent KD of MS2 coat protein (input ligand: FMN 200 uM): 20.2 nM | apparent KD of MS2 coat protein [4]: 60 nM | apparent KD of MS2 coat protein (input ligand: none): 73.1 nM

UAAUUAAGUCAAGGAUAUCACGUCGAUUAGACGUGAGAAGGUGAUUAAUACAUGAGGAUCACCCAUGUAAUACAUGAAUAAUUA [SSNG1/11-B2] (Eterna round: R96, puzzle: Same State NG 1)
apparent KD of MS2 coat protein (input ligand: FMN 200 uM): 37.1 nM | apparent KD of MS2 coat protein [4]: 61.4 nM | apparent KD of MS2 coat protein (input ligand: none): 76.1 nM

GCUGCAAUAAACGCCUACAUGAGGAUCACCCAUGUAUGUAGGCAGGAUAUCGUUUGCAAAGCAAACGAGAAGGGCCGUAGUAGC [Mat - Same State NG 3 - JL Mod - D35] (Eterna round: R96, puzzle: Same State NG 3)
apparent KD of MS2 coat protein (input ligand: FMN 200 uM): 26.3 nM | apparent KD of MS2 coat protein [4]: 44.6 nM | apparent KD of MS2 coat protein (input ligand: none): 66.1 nM

CAGCGCUGUCGAGAGGAUAUGCGGUGAUGGACAUGAGGAUCACCCAUGUUAGCGAUAGCAUUACGGUAGAAGGCUCUACAGCUGC [Soteed no mod] (puzzle: Same State 2)
apparent KD of MS2 coat protein [1]: 15 nM | apparent KD of MS2 coat protein [2]: 25.5 nM | apparent KD of MS2 coat protein [3]: 30.2 nM

CGAGAGUGCGUAGGAUAUCCGAAAGGAAGUGUAGGAGAAGGGCGGAACGCUCAUCGAAAACAUGAGGAUCACCCAUGUACAAAU [PowerStrip SSNG 1.17] (Eterna round: R96, puzzle: Same State NG 1)
apparent KD of MS2 coat protein (input ligand: FMN 200 uM): 24.7 nM | apparent KD of MS2 coat protein [4]: 62.7 nM | apparent KD of MS2 coat protein (input ligand: none): 43.9 nM

CUCAAACAUGAGGAUCACCCAUGUGUUGUCGUGGGAGGAUAUCCCGGUUCGGUGGCGUCGGGAGAAGGCCUAUGUC [× ×•×ª×• ×ž×“×™× ×” × ×—×ª-17] (puzzle: Same State 1)
apparent KD of MS2 coat protein [2]: 54.8 nM

UACAAUCUAUCUGAGGAUAUCAUGAAAUAAACAUGAGGAUCACCCAUGUGCAGGAAAACUGCAUAUGAGAAGGCAGAUAGAUUGA [salish99_ss2_r3_018] (puzzle: Same State 2)
apparent KD of MS2 coat protein [1]: 50.2 nM | apparent KD of MS2 coat protein [2]: 1130 nM | apparent KD of MS2 coat protein [3]: 1810 nM

CUUCGGAAGCGAGGAUAUGCAGAGGAUCACCCUGCAGAAGGCGCAAAAGCGAGGAUAUGCAGAGGAUCACCCUGCAGAAGGCGC [pwkr ssNG DX.34] (Eterna round: R96, puzzle: Same State NG 1)
apparent KD of MS2 coat protein (input ligand: FMN 200 uM): 43 nM | apparent KD of MS2 coat protein [4]: 15.7 nM | apparent KD of MS2 coat protein (input ligand: none): 32.4 nM

AUAAUACAUGAGGAUCACCCAUGUAAUUUAACUUGUAAGAUCAAGGAUAUCAGCUCGUUUAGAGCUGAGAAGGUGAUCACAUGU [SSNG3/20-A3] (Eterna round: R96, puzzle: Same State NG 3)
apparent KD of MS2 coat protein [4]: 60.2 nM

AUUAAACAUGAGGAUCACCCAUGUCAACAAAGUCGAGGAUAUGGGCAAAUAAAAUAAGAACCAGAAGGCGAAUAAU [salish99_ss1_r3_048] (Eterna round: R96, puzzle: Same State 1)
apparent KD of MS2 coat protein [4]: 193 nM

CCCAGGCAUGGAGGAUAUGGGAACAUGAGGAUCACCCAUGUUAACUCCGUAGGCGGCUUAAGGCACCAGAAGGCUACGGCUGGU [Eternabot solution 15] (Eterna round: R96, puzzle: Same State NG 2)
apparent KD of MS2 coat protein (input ligand: FMN 200 uM): 112 nM | apparent KD of MS2 coat protein [4]: 67.8 nM | apparent KD of MS2 coat protein (input ligand: none): 83 nM

GAGUGAUGGGUUAGUAACUGCUAGGAAGGACAUGAGGAUCACCCAUGUGAGUAACGAGCUUGUGCUCGUCUUAUAAG [JR_SHM208A_Sub021] (puzzle: Sensor for hsa-mir-208a)
apparent KD of MS2 coat protein [1]: 167 nM | apparent KD of MS2 coat protein [2]: 89.4 nM | apparent KD of MS2 coat protein [3]: 325 nM

UACAAUCUAUCUGAGGAUAUCAUGAUUCUAACAUGAGGAUCACCCAUGUGCAGGAAAACUGCAUAUGAGAAGGCAGAUAGAUUGU [salish99_ss2_r3_072] (puzzle: Same State 2)
apparent KD of MS2 coat protein [1]: 67.7 nM | apparent KD of MS2 coat protein [2]: 33.3 nM | apparent KD of MS2 coat protein [3]: 148 nM

GUGGUGGGUUGAGGAUAUUGGUUGUUGUUGUCCCACAUGAGGAUCACCCAUGUGGGUUGUGGUUUUGAGAAGGUUGGUUGCCGG [salish99_SSNG2_r04_053] (Eterna round: R96, puzzle: Same State NG 2)
apparent KD of MS2 coat protein [4]: 15 nM

GUGGUCAGACAUGAGGAUCACCCAUGUGGAAUAAAUAACGGACAGGAUAUUCAAUAUAGGAUAUAGAAGAAGGGUUGAUUGGUG (Eterna round: R96, puzzle: Same State NG 3)
apparent KD of MS2 coat protein (input ligand: FMN 200 uM): 143 nM | apparent KD of MS2 coat protein [4]: 84.5 nM | apparent KD of MS2 coat protein (input ligand: none): 90.9 nM

UUGAAGAAUUAAGGAUAUCGAGUCGUCAGAUUAUACAUGAGGAUCACCCAUGUGGGUUGCGGUAUCGAGAAGGUAAAUUACAAG [JL JR Sub099 mod 5] (Eterna round: R96, puzzle: Same State NG 2)
apparent KD of MS2 coat protein (input ligand: FMN 200 uM): 37.5 nM | apparent KD of MS2 coat protein [4]: 58.4 nM | apparent KD of MS2 coat protein (input ligand: none): 60 nM

GUACAAAUCAUAGGAUAUGGGCGGGAAUGCCGUCCAGAAGGAUGAACAUGAGGAUCACCCAUGUCCGGCCACAAAUACGCGGCC [Bientela] (Eterna round: R96, puzzle: Same State NG 1)
apparent KD of MS2 coat protein (input ligand: FMN 200 uM): 72.3 nM | apparent KD of MS2 coat protein [4]: 104 nM | apparent KD of MS2 coat protein (input ligand: none): 161 nM

UUUAGAUAGCGAGGAUAUCGCGAGGAUCACCCGUGAGAAGGCGCAGAGCCGAGGAUCACCCGGCUGAUCCUGAGAAGGAGGUCA (Eterna round: R96, puzzle: Same State NG 1)
apparent KD of MS2 coat protein (input ligand: FMN 200 uM): 92.3 nM | apparent KD of MS2 coat protein [4]: 155 nM | apparent KD of MS2 coat protein (input ligand: none): 245 nM

CUGAGAUGUCAAGGAUAUCACGUCGAUUAGACGUGAGAAGGUGAUCUGCACAUGAGGAUCACCCAUGUGUUACAUGGAAUUCAG [Brourd's SSNG1/1-A2 mod 12] (Eterna round: R96, puzzle: Same State NG 1)
apparent KD of MS2 coat protein (input ligand: FMN 200 uM): 567 nM | apparent KD of MS2 coat protein [4]: 278 nM | apparent KD of MS2 coat protein (input ligand: none): 889 nM

GGAGAGAAGUGAGGAUAUGCAUGGAAGACACAUGAGGAUCACCCAUGUGGGAGGGAAACCGGGAGGUAGAAGGCACUGGGAAGA [AK SSNG2-V2-25] (Eterna round: R96, puzzle: Same State NG 2)
apparent KD of MS2 coat protein (input ligand: FMN 200 uM): 83.7 nM | apparent KD of MS2 coat protein [4]: 24.1 nM | apparent KD of MS2 coat protein (input ligand: none): 107 nM

AGCAAAGCGACAGGAUAUGGUAAGGAUCUCUUACCAGAAGGGUCAAGUGCAUGACAUGAGGAUCACCCAUGUAGGUUGUUUACC [Eternabot solution 44] (Eterna round: R96, puzzle: Same State NG 1)
apparent KD of MS2 coat protein (input ligand: FMN 200 uM): 18.2 nM | apparent KD of MS2 coat protein [4]: 18.5 nM | apparent KD of MS2 coat protein (input ligand: none): 26.5 nM

UUGGUGUAGAUACAGGAUAUGUUGCUCGUAACAUGAGGAUCACCCAUGUAUCUAUGAGAUUAAAUGCAGAAGGGUGCACACCACU [salish99_ss2_r3_087] (puzzle: Same State 2)
apparent KD of MS2 coat protein [1]: 39.6 nM | apparent KD of MS2 coat protein [2]: 341 nM | apparent KD of MS2 coat protein [3]: 541 nM
